Five substances from publication doi:10.1101/2021.04.23.440992 can be followed below.

The target of the assay is FUS-DDIT3 (Type II fusion), recombinant. In words: partitioning of a labelled client into condensates.
As to “ARID1B^PLD, recombinant prion-like domain of ARID1B (domain or fragment)”, the partition coefficient came to 3.8.

On to “ARID1A^PLD, recombinant prion-like domain of ARID1A (domain or fragment)”, for which the partition coefficient stood at 15.

Regarding “BRG1, recombinant, RED-tris-NTA-labeled (from UniProt P51532 1-1647) (natural protein)”, the partition coefficient amounted to 27.

Turning to “SS18^PLD, recombinant prion-like domain of SS18 (domain or fragment)”, the partition coefficient was found to be 6.

As to “BRG1^PLD, recombinant N-terminal prion-like domain of BRG1 (from UniProt P51532 1-340) (domain or fragment)”, the partition coefficient is 40.
